Test results: patent US20170267752A1 (Ablynx, published 2017)
Numbering of substitutions follows the chain as printed. Names may count otherwise. One block for each binder: values may come before it.

Assays:
biot-hTNFα = biot-hTNFα (human, UniProt P01375 77-233, biotinylated (site not stated)); assay: competition ELISA according to Example 5 (assay not given)
Procedure: The SHIME model consists of five reactors which sequentially simulate the stomach (acid conditions and pepsin digestion), small intestine (digestive processes) and the 3 regions of the large intestine, i.e. the ascending (“A”), transverse (“T”) and descending colon (“D”) (microbial processes). […] All GI fluids were provided by ProDigest (Technologiepark 4, 9052 Zwijnaarde, Belgium). The anti-TNF Nanobodies were tested for a maximum period of 39 hours in the GI-fluids. After the incubation in the GI-fluids, stability of the Nanobodies was determined via functionality testing in a competition ELISA. The Nanobodies were tested at a fixed concentration of 100 μg/ml at 37° C. in 5 different GI fluids in the SHIMS model. At different time-points samples were taken and stored in the −20° C. with or without the addition of protease inhibitors, according to the schedule in Table 5.1. The samples were transferred to coated ELISA plates and subsequently tested in the competition ELISA. […] After blocking, a fixed concentration of 0.3 nM biot-hTNFα together with a titration series of the variants in the different GI fluids was added. Detection was performed with extravidin-HRP.

[1] = molecular target: membrane bound human TNF (mTNF), human TNF R77T/S78T variant on HEK293H-mTNF cells (human) (UniProt P01375); assay: competition FACS on HEK293H-mTNF cells, competitor Enbrel at EC30 (0.02 nM)
Chain of membrane bound human TNF (mTNF), human TNF R77T/S78T variant on HEK293H-mTNF cells (human) (P01375 whole entry, stated change not applied): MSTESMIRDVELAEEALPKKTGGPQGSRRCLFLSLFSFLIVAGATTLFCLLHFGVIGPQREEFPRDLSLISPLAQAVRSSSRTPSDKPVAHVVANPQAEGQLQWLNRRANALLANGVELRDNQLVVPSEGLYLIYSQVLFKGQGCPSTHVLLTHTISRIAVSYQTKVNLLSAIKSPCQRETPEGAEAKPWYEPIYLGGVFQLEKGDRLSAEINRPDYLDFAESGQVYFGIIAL

[2] = molecular target: membrane bound human TNF (mTNF), human TNF R77T/S78T variant on HEK293H-mTNF cells (human) (UniProt P01375); assay: competition FACS on HEK293H-mTNF cells, competitor Enbrel at EC90 (0.2 nM)

Chain of biot-hTNFα (P01375 77-233 limits assumed): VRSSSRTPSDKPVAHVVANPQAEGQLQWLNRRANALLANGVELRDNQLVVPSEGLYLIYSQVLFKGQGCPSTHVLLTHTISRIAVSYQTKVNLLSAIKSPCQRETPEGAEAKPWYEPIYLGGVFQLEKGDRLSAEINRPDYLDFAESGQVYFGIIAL

B1: A016600021 (VHH)
VHH: DVQLVESGGGVVQPGGSLRLSCTASGFTFSTADMGWFRQAPGKGREFVARISGIDGTTYYDEPVKGRFTISRDNSKNTVYLQMNSLRPEDTALYYCRSPRYADQWSAYDYWGQGTLVTVSS
IC50 (biot-hTNFα): 0.67 nM | IC50 [1]: 0.43 nM | IC50 [2]: 0.65 nM

B3: A016600038 (VHH)
VHH: B1 VHH with S75A
IC50 [1]: 0.43 nM | IC50 [2]: 0.7 nM

B4: A016600052 (VHH)
VHH: B1 VHH with A49C, I70C, Y108L
notes: S49C, I69C (intradomain disulfide) and Y100dL
IC50 (biot-hTNFα): 3.56 nM | fold increase of IC50 compared to 00021 (biot-hTNFα): 2 to 5 fold

Continued, values first:

IC50 [1]: 0.54 nM | IC50 [2]: 0.76 nM
B2: A016600045 (VHH)
VHH: B1 VHH with Y108H

IC50 (biot-hTNFα): 1.13 nM | fold increase of IC50 compared to 00021 (biot-hTNFα): 2 to 5 fold
B5: A016600046 (VHH)
VHH: B1 VHH with Y108L
notes: Y100dL substitution in CDR3; also called A016600046 100dL; A016600046 Y100dL
